Holding throughout (assay): In vitro cytotoxic activity of ADCs
Common to all, as to type: cell-based

One experiment deals with Karpas 299. The settings on record: Table 6; Karpas 299 CD30+ CD70−. How it is done: (§1) The targeting antibody ligands cAC10 and h1F6 are described in U.S. Pat. […] cAC10-1006 and hF16-1006, referenced in the following tables, is the chimeric AC10 antibody and the humanized F16 antibody, respectively, conjugated to monomethyl auristatin E (MMAE) at its N terminus via a carbamate functional group to a val-cit-PABA self-immolative moiety having formula XVIII and was used as a control. The resultant ADCs were tested against multiple cell lines to determine in vitro activity, the results from which are summarized in Tables 5 and 6.

Another experiment concerns Caki-1. The settings on record: Table 6; Caki-1 CD70+. How it is done: as §1
A further experiment relates to 786-0. The settings on record: Table 6; 786-0 CD70+. How it is done:
as §1

Another experiment relates to L540cy. The settings on record: Table 6; L540cy CD30+ CD70 (low). As for the experimental part: as §1

Marks after values point to notes of the source that are not given here.

B1: h1F6-1.3: h1F6 antibody (targets CD70+ cells) conjugated to auristatin E Drug-Linker compound 1.3 with MAC unit (conjugate, chains of the INN, looked up)
VH: QVQLVQSGAEVKKPGASVKVSCKASGYTFTNYGMNWVRQAPGQGLKWMGWINTYTGEPTYADAFKGRVTMTRDTSISTAYMELSRLRSDDTAVYYCARDYGDYGMDYWGQGTTVTVSS
VL: DIVMTQSPDSLAVSLGERATINCRASKSVSTSGYSFMHWYQQKPGQPPKLLIYLASNLESGVPDRFSGSGSGTDFTLTISSLQAEDVAVYYCQHSREVPWTFGQGTKVEIK
modifications: auristatin E drug-linker 1.3 with MAC unit
notes: h1F6 antibody (targets CD70+ cells) conjugated to auristatin E Drug-Linker compound 1.3 with MAC unit
Turning to B1, the IC50 (as a rule, the point on the concentration scale where inhibition reaches its midpoint) with Karpas 299 is greater than 1 µg/mL; in the experiment with Caki-1, 0.019 µg/mL; in the experiment with 786-0 it was >1000** ng/mL; in the experiment on L540cy, >1000* ng/mL.

Values taken from US11116847B2, “Methylene carbamate linkers for use with targeted-drug conjugates” (Seagen Inc., priority 2013, dated 2021).
